The values below come from patent publication US20230372484A1 (VOR BIOPHARMA, published 2023).

The experiment addresses CD33 (UniProt P20138 18-364, limits assumed). The experiment can be described thus: cell-based or functional assay.

CD33, sequence (P20138 18-364 limits assumed): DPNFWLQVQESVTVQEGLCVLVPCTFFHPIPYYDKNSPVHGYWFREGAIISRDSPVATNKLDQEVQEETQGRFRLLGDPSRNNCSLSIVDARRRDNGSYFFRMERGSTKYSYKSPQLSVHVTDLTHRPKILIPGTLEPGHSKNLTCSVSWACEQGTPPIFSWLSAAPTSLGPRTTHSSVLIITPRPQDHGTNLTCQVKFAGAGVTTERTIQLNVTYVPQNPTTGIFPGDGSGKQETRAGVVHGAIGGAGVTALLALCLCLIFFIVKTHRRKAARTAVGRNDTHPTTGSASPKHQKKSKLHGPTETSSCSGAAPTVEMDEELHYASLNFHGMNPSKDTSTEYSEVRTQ

B1: CD33-CAR4 (other)
chain: EVQLVQSGAEVKKPGSSVKVSCKASGYTITDSNIHWVRQAPGQSLEWIGYIYPYNGGTDYNQKFKNRATLTVDNPTNTAYMELSSLRSEDTAFYYCVNGNPWLAYWGQGTLVTVSSGGGGSGGGGSGGGGSDIQLTQSPSTLSASVGDRVTITCRASESLDNYGIRFLTWFQQKPGKAPKLLMYAASNQGSGVPSRFSGSGSGTEFTLTISSLQPDDFATYYCQQTKEVPWSFGQGTKVEVKRTSSGAAAIEVMYPPPYLDNEKSNGTIIHVKGKHLCPSPLFPGPSKPFWVLVVVGGVLACYSLLVTVAFIIFWVRSKRSRLLHSDYMNMTPRRPGPTRKHYQPYAPPRDFAAYRSRVKFSRSADAPAYQQGQNQLYNELNLGRREEYDVLDKRRGRDPEMGGKPRRKNPQEGLYNELQKDKMAEAYSEIGMKGERRRGKGHDGLYQGLSTATKDTYDALHMQALPPRGS
Turning to B1, the “Ratio (NFAT-inducible reporter with wild-type MOLM-13 relative to MOLM-13 CD33KO)” value is 2.41 ratio and the “Testing FP2 Expression (CD33+)” value was 4.14 % of constitutive-fluorescence-positive cells.

B2: CD33-CAR5 (other)
chain: QVKLEESGGGSVQAGESLRLSCTASGITFRDYDIDWYRQAPGKEREWLATITPSGTTHYPDSVKGRATISRDSAKNTVYLQMNSLKPEDTARYECNTLAYWGSGTQVTVSSAAATTTPAPRPPTPAPTIASQPLSLRPEACRPAAGGAVHTRGLDFACDIYIWAPLAGTCGVLLLSLVITLYCKRGRKKLLYIFKQPFMRPVQTTQEEDGCSCRFPEEEEGGCELRVKFSRSADAPAYQQGQNQLYNELNLGRREEYDVLDKRRGRDPEMGGKPRRKNPQEGLYNELQKDKMAEAYSEIGMKGERRRGKGHDGLYQGLSTATKDTYDALHMQALPPR
For the molecule B2, the “Ratio (NFAT-inducible reporter with wild-type MOLM-13 relative to MOLM-13 CD33KO)” value came out at 8.5 ratio and the “Testing FP2 Expression (CD33+)” value was 28.2 % of constitutive-fluorescence-positive cells.

B3: CD33-CAR7 (other)
chain: MELGLSWVVLAALLQGVQAQVQLVQPGGSLRLFCVASEEFFSIYAMGWYRQAPGKQHEMVARFTRDGKITYADSAKGRFTITRDAKNTLNLQMNGLIPEDTAVYYCNINHYWGQGTQVTVSSAAATTTPAPRPPTPAPTIASQPLSLRPEACRPAAGGAVHTRGLDFACDIYIWAPLAGTCGVLLLSLVITLYCKRGRKKLLYIFKQPFMRPVQTTQEEDGCSCRFPEEEEGGCELRVKFSRSADAPAYQQGQNQLYNELNLGRREEYDVLDKRRGRDPEMGGKPRRKNPQEGLYNELQKDKMAEAYSEIGMKGERRRGKGHDGLYQGLSTATKDTYDALHMQALPPR
Turning to B3, the “Ratio (NFAT-inducible reporter with wild-type MOLM-13 relative to MOLM-13 CD33KO)” value came out at 1.98 ratio and the “Testing FP2 Expression (CD33+)” value is 17.6 % of constitutive-fluorescence-positive cells.

B4: CD33-CAR3 (other)
chain: QVQLVQSGAEVKKPGSSVKVSCKASGYTFTDYNMHWVRQAPGQGLEWIGYIYPYNGGTGYNQKFKSKATITADESTNTAYMELSSLRSEDTAVYYCARGRPAMDYWGQGTLVTVSSGGGGSGGGGSGGGGSDIQMTQSPSSLSASVGDRVTITCRASESVDNYGISFMNWFQQKPGKAPKLLIYAASNQGSGVPSRFSGSGSGTDFTLTISSLQPDDFATYYCQQSKEVPWTFGQGTKVEIKSGAAAIEVMYPPPYLDNEKSNGTIIHVKGKHLCPSPLFPGPSKPFWVLVVVGGVLACYSLLVTVAFIIFWVRSKRSRLLHSDYMNMTPRRPGPTRKHYQPYAPPRDFAAYRSRVKFSRSADAPAYQQGQNQLYNELNLGRREEYDVLDKRRGRDPEMGGKPRRKNPQEGLYNELQKDKMAEAYSEIGMKGERRRGKGHDGLYQGLSTATKDTYDALHMQALPPRGS
As to B4, the “Ratio (NFAT-inducible reporter with wild-type MOLM-13 relative to MOLM-13 CD33KO)” value turned out to be 1.44 ratio and the “Testing FP2 Expression (CD33+)” value is 3.9 % of constitutive-fluorescence-positive cells.

B5: CD33-CAR6 (other)
chain: QVQLVETGGGLVRAGGSLRLSCAASGRTADIYNIGWFRQAPGKEREFVAAITWIGRTPYYADAVKGRFAFSTDSAKNTVSLQMDNLKPEDTGVYYCNAAHYLEGNTDYYWGQGTQVTVSSAAATTTPAPRPPTPAPTIASQPLSLRPEACRPAAGGAVHTRGLDFACDIYIWAPLAGTCGVLLLSLVITLYCKRGRKKLLYIFKQPFMRPVQTTQEEDGCSCRFPEEEEGGCELRVKFSRSADAPAYQQGQNQLYNELNLGRREEYDVLDKRRGRDPEMGGKPRRKNPQEGLYNELQKDKMAEAYSEIGMKGERRRGKGHDGLYQGLSTATKDTYDALHMQALPPR
For B5, the “Ratio (NFAT-inducible reporter with wild-type MOLM-13 relative to MOLM-13 CD33KO)” value was found to be 3.6 ratio and the “Testing FP2 Expression (CD33+)” value is 22.9 % of constitutive-fluorescence-positive cells.
